Results taken from patent publication US20240376170A1 (BRIGHT PEAK THERAPEUTICS, published 2024).
Bridges are numbered along the chain shown (N, C = ends). Primed or numbered codes have the meaning given here. [ ]: non-standard residue; d: D form. Ygp(4) = Tyr with amino-capped PEG8 (O-(8x polyethylene glycol-amino)-tyrosine); Yn3(4) = Tyr with azide-capped PEG9 (O-(9x polyethylene glycol-azido)-tyrosine); Ygp = O-(8x polyethylene glycol-amino)-tyrosine (Tyr, amino-capped PEG8); Yn3 = O-(9x polyethylene glycol-azido)-tyrosine (Tyr, azide-capped PEG9); hSer = N[C@@H](CCO)C(=O)O; Nle = CCCC[C@H](N)C(=O)O

T1: recombinant human IL-2 receptor beta containing a His-tag and Avi-tag (human, UniProt P14784 27-239)
T1 construct: Bought; attached to the SAX2 biosensor; also called CD122; IL-2R β; not shown: His-tag and Avi-tag
T1 sequence (looked up): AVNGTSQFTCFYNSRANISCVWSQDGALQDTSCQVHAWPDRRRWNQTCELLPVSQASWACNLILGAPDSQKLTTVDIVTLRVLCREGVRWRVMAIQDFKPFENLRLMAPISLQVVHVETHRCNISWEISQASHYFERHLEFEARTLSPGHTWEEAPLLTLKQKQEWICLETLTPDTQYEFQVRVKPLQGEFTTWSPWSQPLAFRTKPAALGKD

T2: Avi-tag Fc with human IL-2R beta and IL-2R gamma attached (Acrobiosystems ACRB-ILG-H82F3-25UG) (human, UniProt P14784 27-239; P31785 23-262)
T2 construct: Bought; attached to the SAX2 biosensor; also called CD122 CD132; IL-2R βγ; not shown: Fc and Avi-tag
T2 sequence (looked up) 1: T1 sequence (looked up)
T2 sequence (looked up) 2: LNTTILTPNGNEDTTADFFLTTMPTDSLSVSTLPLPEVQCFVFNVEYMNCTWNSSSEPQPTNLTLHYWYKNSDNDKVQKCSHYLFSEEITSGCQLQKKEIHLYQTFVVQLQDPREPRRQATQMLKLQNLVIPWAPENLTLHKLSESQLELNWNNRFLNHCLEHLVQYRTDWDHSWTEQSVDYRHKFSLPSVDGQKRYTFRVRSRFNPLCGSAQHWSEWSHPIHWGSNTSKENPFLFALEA

B1: CMP-313 (ligand)
chain: APTSSSTKKTQLQLEHLLLDLQKILNGINNYKNPKLTR[Nle]L[hSer][Yn3(4)]KF[Ygp(4)][Nle]PKKATELKHLQCLEEELKPLEEVL[hSer]LAQSKNFHLRPRDLISNINVIVLELKGSETTF[hSer]CEYADETATIVEFLNRWITFSQSIISTLT
modifications: not fully specified; ends and bridges not checked; also: Lys23 side chain carries an attached cleavable peptide moiety (structure only in drawing)
notes: Synthetic IL-2 polypeptide, tested intact
B2: CMP-328 (ligand)
chain: APTSSSTKKTQLQLEHLLLDLQEILNGINNYKNPKLTR[Nle]L[hSer][Yn3]KF[Ygp][Nle]PKKATELKHLQCLEEELKPLEEVL[hSer]LAQSKNFHLRPRDLISNINVIVLELKGSETTF[hSer]CEYADETATIVEFLNRWITFSQSIISTLT
modifications: bridge 9-23; not fully specified (bridges)
notes: as for B1

Columns and labels:
[1] = molecular target: T1, recombinant human IL-2 receptor beta …; test: BLI (Octet R8), receptor on SAX2 sensor; construct CMP-313, not MMP2-treated
Description: (§1) Bilayer interferometry (BLI) assays were used to measure the binding constants between activatable IL-2 polypeptides (and activated versions thereof) to IL-2 receptor subunits or receptor complexes. BLI assays were conducted on an Octet® R8 instrument. Assay plates were 96 well, polypropylene, F-bottom (chimney well), black microplates (Greiner Bio-one, Cat. No: 655209). The biosensors were Octet® SAX2 (Sartorius, Cat. No: 18-5136). The assay buffer was 1X Kinetic Buffer (Sartorius, Cat. no: 18-5136) or Phosphate Buffered Saline (PBS) that contained 0.02% (v: v) Tween 20 (Polysorbate 20) and 0.1% (w/v) bovine serum albumin (BSA). The sensor was regenerated between measurements in 10 mM glycine pH 2.7 buffer.
(§2) Sensor attached receptors were either recombinant human IL-2 receptor beta containing a His-tag and Avi-tag™ (R&D Systems™) or an Avi-tag™ Fc with human IL-2R beta and IL-2R gamma attached (Acrobiosystems Cat. no: ACRB-ILG-H₈₂F3-25UG). Receptors were reconstituted from lyophilized powder to 500 μg/ml in PBS. Analytes were diluted in Kinetic buffer to 300 nM, then serially diluted to lower concentrations.

[2] = molecular target: T2, Avi-tag Fc with human IL-2R beta and …; test: as above
Description: as §1, §2

[3] = molecular target: T2, Avi-tag Fc with human IL-2R beta and …; test: BLI (Octet R8), receptor on SAX2 sensor
Summary of the method: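 Receptor immobilized on SAX2 biosensors; analytes (intact or MMP2-cleaved activatable IL-2 constructs) started at 300 nM and serially diluted in Kinetic buffer or PBS with 0.02% Tween 20 and 0.1% BSA. Binding constants measured by biolayer interferometry; sensors regenerated with 10 mM glycine pH 2.7 between runs.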

[4] = molecular target: T1, recombinant human IL-2 receptor beta …; test: BLI (Octet R8), receptor on SAX2 sensor; construct CMP-328, not MMP2-treated
Description: as §1, §2

Row | Binder | Kd [1] | Kd [2] | koff [3] | Kd [4]
1 | B1 | 163 nM | 3.4 nM | 0.00148 s⁻¹ | 
2 | B2 |  |  | 0.00194 s⁻¹ | 0.034 nM
